Data as given in doi:10.1101/2024.01.22.576655.

Experiments:
[1] = biological target: β-gal RNCs purified in low-salt buffer without the second sucrose cushion; experiment: affinity purification with mass spectrometry
[2] = biological target: BADAN-labelled TF_(R14C) (Escherichia coli) (UniProt P0A850); experiment: other fluorescence titration
[3] = biological target: longer NCs; experiment: co-sedimentation
[4] = biological target: RNC_(1-180) (Escherichia coli BL21(DE3)); experiment: co-sedimentation
[5] = biological target: RNC_(1-646) (Escherichia coli BL21(DE3)); experiment: co-sedimentation

Chain of DnaJ (endogenous) (P08622 whole entry): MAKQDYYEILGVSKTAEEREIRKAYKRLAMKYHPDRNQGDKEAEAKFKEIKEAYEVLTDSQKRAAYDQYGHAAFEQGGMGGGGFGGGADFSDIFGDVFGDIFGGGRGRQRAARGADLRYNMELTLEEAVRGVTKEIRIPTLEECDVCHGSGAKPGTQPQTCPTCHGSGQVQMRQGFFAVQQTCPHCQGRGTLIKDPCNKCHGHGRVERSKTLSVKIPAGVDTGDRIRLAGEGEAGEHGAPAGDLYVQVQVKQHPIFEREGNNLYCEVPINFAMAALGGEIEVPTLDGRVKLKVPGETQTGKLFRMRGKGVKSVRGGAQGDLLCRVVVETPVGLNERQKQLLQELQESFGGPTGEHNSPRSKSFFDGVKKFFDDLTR

occupancy [1] [%] | stoichiometry N [5] | Substance | further results
< 10 | – | DnaJ (endogenous) (from UniProt P08622 1-376) (natural protein) | –
– | – | RNC_(1-646) (complex) | Kd [2]: 21 nM
– | 2 DnaK per NC | DnaK, recombinant (from UniProt P0A6Y8 1-638) (natural protein) | stoichiometry N (molecules of DnaK per NC) [3]: 2 to 3; stoichiometry N [4]: 1 DnaK per NC
< 10 | – | DnaK (endogenous) (from UniProt P0A6Y8 1-638) (natural protein) | –
– | 1 TF per RNC | Trigger factor, wild type, recombinant (from UniProt P0A850 1-432) (natural protein) | –
